Data reported in patent US20160216269A1 (BIOCARE MEDICAL, published 2016).

Molecular target: T1, SOX10 epitope peptide QGGTAAIQAHYKSAH (human)
T1 construct: One of the overlapping peptides of about 15 amino acids covering human SOX10 147-253
T1 peptide: QGGTAAIQAHYKSAH
Assay: epitope mapping with overlapping SOX10 peptides, direct ELISA and dot blot
Description: In order to determine the peptide sequence of SOX10 that is recognized by anti-SOX10 antibodies such as BC34, epitope mapping may be conducted perhaps using two assays: direct ELISA and even dot blot. In an ELISA assay, the sensitivity and specificity of the anti-SOX10 [BC34] antibody may be determined by measuring the antibody titer at about 1:500 and about 1:1000. Overlapping peptides at a length of about 15 amino acids each, covering the human SOX10 protein sequence from perhaps 147 to 253 amino acids, may be used to determine a sequence of BC34 binding.

B1: mouse monoclonal anti-SOX10 antibody BC34 (antibody, V domains shown)
VH: QVTLKESGPGILQPSQTLSLTCSFSGFSLSTFLIGVGWIRQPSGKGLEWLAHIWWNDNKYYNTALKNRLTISKDTSNNQVFLKIASVDTTDTATYYCVRMAGIGGTDAMDYWGQGTSVTVSS
VL: DIVLTQSPASLAVSLGQRATISCRASEIVEYYGTNLLQWYQQKPGQPPKLLIYAASNVESGVPARFSGSGSGTDFSLNIHPVEEDDIAIYFCQQSRKVPWTFGGGTKLEIK
notes: also called anti-SOX10 antibody [clone BC34]; SOX10 [BC34]
  binding result: binds
